Numbering of substitutions follows the chain as printed.

The target of assay [1] is T1, hTIGIT variant 3 (Q62H and Q64H)-CD4TM-GFP on HEK-293T cells (human, UniProt Q495A1 22-141).
T1 construct: not shown: transmembrane domain of CD4 (CD4TM); GFP tag
T1 chain: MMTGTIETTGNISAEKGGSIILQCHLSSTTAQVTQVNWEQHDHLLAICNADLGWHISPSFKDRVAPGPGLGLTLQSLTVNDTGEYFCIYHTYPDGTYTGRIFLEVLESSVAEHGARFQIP
The assay is described as follows: FACS on transfected HEK-293T cells. Here is the method: (§1) To identify the binding epitope of antibody 313M32, an analysis was performed with a series of variants of human TIGIT with specific amino acid substitutions. The variants were based upon the differences between human TIGIT and cynomolgus TIGIT amino acid sequences, SEQ ID NO:4 and SEQ ID NO:77, respectively. The amino acid sequence of rhesus monkey TIGIT (SEQ ID NO:78) is identical to cynomolgus TIGIT (FIG. 21). The amino acid variants introduce amino acid residues present in cynomolgus monkey TIGIT into corresponding positions in human TIGIT. The hTIGIT variants generated have substitutions at (1) E36K and […]; (2) T51M, (3) Q62H and Q64H, (4) D72E, (5) S78Y and S80A, (6) V100M, (7) I109T and T119R, and (8) G135S. Each variant hTIGIT was generated using the hTIGIT (aa 22-141)-CD4TM-GFP construct described in Example 15.
(§2) The TIGIT variants were evaluated by FACS with anti-hTIGIT antibodies. […] After 16 hours, transfected cells were suspended in ice cold HBSS containing 2% FBS and incubated on ice with 1 μg/ml anti-hTIGIT antibodies 313R12, 313M32, or 313M34 for 30 minutes. 313M34 is an anti-hTIGIT antibody that was generated based upon the amino acid sequences of the 10A7 antibody described in U.S. Publication 2009/0258013. […] The cells were analyzed on a FACSCanto instrument (BD Biosciences) and the data was processed using FlowJo software.

Assay [2] concerns the target T2, hTIGIT variant 7 (I109T and T119R)-CD4TM-GFP on HEK-293T cells (human, UniProt Q495A1 22-141).
T2 construct: not shown: transmembrane domain of CD4 (CD4TM); GFP tag
T2 chain: T1 chain with H41Q, H43Q, I88T, T98R
The experiment in a line: FACS on transfected HEK-293T cells. Here is the method: as §1, §2

Another assay has as its target T3, human TIGIT (human, UniProt Q495A1 22-141, limits assumed).
T3 construct: also called hTIGIT
T3 sequence: T1 chain with H41Q, H43Q
The assay is described as follows: Biacore, preliminary; format not stated.

The target of assay [3] is T4, hTIGIT variant 6 (V100M)-CD4TM-GFP on HEK-293T cells (human, UniProt Q495A1 22-141).
T4 construct: not shown: transmembrane domain of CD4 (CD4TM); GFP tag
T4 chain: T1 chain with H41Q, H43Q, V79M
The experiment in a line: FACS, 1 µg/ml antibody on transfected HEK-293T cells. How it is done: as §1
(§3) The TIGIT variants were evaluated by FACS with anti-hTIGIT antibodies. […] After 16 hours, transfected cells were suspended in ice cold HBSS containing 2% FBS and incubated on ice with 1 μg/ml anti-hTIGIT antibodies 313R12, 313M32, or 313M34 for 30 minutes. 313M34 is an anti-hTIGIT antibody that was generated based upon the amino acid sequences of the 10A7 antibody described in U.S. Publication 2009/0258013. The 10A7 antibody is an anti-mouse TIGIT antibody that binds both mouse TIGIT and human TIGIT. A second incubation with 50 μl PE-conjugated anti-Fc secondary antibody was performed to detect cells bound by the antibodies. The cells were analyzed on a FACSCanto instrument (BD Biosciences) and the data was processed using FlowJo software.

Assay [4] has as its target T5, hTIGIT variant 1 (E36K and I41V)-CD4TM-GFP on HEK-293T cells (human, UniProt Q495A1 22-141).
T5 construct: read as I41V; not shown: transmembrane domain of CD4 (CD4TM); GFP tag
T5 chain: T1 chain with E15K, I20V, H41Q, H43Q
The description is as above. Here is the method:
as §1, §3

Assay [5] concerns the target T6, hTIGIT variant 2 (T51M)-CD4TM-GFP on HEK-293T cells (human, UniProt Q495A1 22-141).
T6 construct: not shown: transmembrane domain of CD4 (CD4TM); GFP tag
T6 chain: T1 chain with T30M, H41Q, H43Q
Described as above. How it is done: as §1, §3

Assay [6] concerns the target T7, hTIGIT variant 5 (S78Y and S80A)-CD4TM-GFP on HEK-293T cells (human, UniProt Q495A1 22-141).
T7 construct: not shown: transmembrane domain of CD4 (CD4TM); GFP tag
T7 chain: T1 chain with H41Q, H43Q, S57Y, S59A
The description is as above. Here is the method: as §1, §3

Assay [7] addresses T8, hTIGIT variant 4 (D72E)-CD4TM-GFP on HEK-293T cells (human, UniProt Q495A1 22-141).
T8 construct: not shown: transmembrane domain of CD4 (CD4TM); GFP tag
T8 chain: T1 chain with H41Q, H43Q, D51E
The description is as above. How it is done:
as §1, §3

Assay [8] deals with T9, hTIGIT variant 8 (G135S)-CD4TM-GFP on HEK-293T cells (human, UniProt Q495A1 22-141).
T9 construct: not shown: transmembrane domain of CD4 (CD4TM); GFP tag
T9 chain: T1 chain with H41Q, H43Q, G114S
The description is as above. Here is the method: as §1, §3

Assay [9] addresses T10, hTIGIT-CD4TM-GFP on HEK-293T cells (human, UniProt Q495A1 22-141).
T10 construct: Cell surface fusion protein, transiently expressed; also called human TIGIT ECD-CD4TM-GFP; FLAG-hTIGIT-CD4TM-GFP; not shown: transmembrane domain of CD4 (CD4TM); C-terminal GFP protein tag
T10 sequence: T1 chain with H41Q, H43Q
The assay is described as follows: inferred from two blocking studies of hPVR-rbFc binding to hTIGIT cells, flow cytometry. How it is done: After 16 hours, transfected cells were suspended in ice cold HBSS containing 2% FBS and heparin and incubated on ice with 0.5 μg/ml hPVR-rbFc fusion protein in the presence of anti-TIGIT antibodies 313R19, 313M26, or 313M32 for 60 minutes. Antibody 313R19 is a humanized version of a rabbit anti-TIGIT antibody. 313R19 binds mouse and human TIGIT. The antibodies were tested at concentrations of 10, 2, and 0.4 ug/ml. Cells were incubated without antibody or without hPVR-rbFc as controls. A second incubation with 100 μl PE-conjugated anti-rabbit Fc secondary antibody was performed to detect cells bound by the hPVR-rbFc fusion protein. The cells were analyzed on a FACSCanto instrument (BD Biosciences) and the data was processed using FlowJo software.
All three anti-TIGIT antibodies blocked binding of hPVR-rbFc to hTIGIT at the highest concentration of 10 μg/ml.

The target of assay [10] is T11, mouse TIGIT ECD-CD4TM-GFP on HEK-293T cells (mouse, UniProt P86176 29-148).
T11 construct: The legend names the construct as mouse TIGIT ECD; also called mouse TIGIT-CD4TM-GFP; mTIGIT-CD4TM-GFP; not shown: transmembrane domain of CD4 (CD4TM); GFP (green fluorescent protein)
T11 sequence: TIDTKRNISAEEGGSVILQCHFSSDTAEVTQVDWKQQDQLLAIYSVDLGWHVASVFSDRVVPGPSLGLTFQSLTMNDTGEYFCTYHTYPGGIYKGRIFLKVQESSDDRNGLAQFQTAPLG
The assay is described as follows: flow cytometry, 1 µg/ml antibody on HEK-293T cells transiently transfected with mTIGIT-CD4TM-GFP, PE-conjugated anti-Fc secondary. Here is the method:
as §3

B1: anti-TIGIT antibody 313M32 (antibody, human IgG1, kappa, V domains shown)
VH: QVQLQESGPGLVKPSETLSLTCAVSGYSITSDYAWNWIRQPPGKGLEWIGYISYSGSTSYNPSLRSRVTISRDTSKNQFFLKLSSVTAADTAVYYCARRQVGLGFAYWGQGTLVTVSS
VL: DIQMTQSPSSLSASVGDRVTITCKASQDVSTAVAWYQQKPGKAPKLLIYSASYRYTGVPSRFSGSGSGTDFTFTISSLQPEDIATYYCQQHYSTPWTFGQGTKVEIKR
notes: Humanized version of 313M26, human IgG1
Turning to B1, the binding result in assay [1] is recorded as “no binding (tested: 1 µg/ml)”; in [2] it was “no binding (tested: 1 µg/ml)”; in assay [3] it was “binds”; in assay [4] it was “binds”; in [5] it was “binds”; in [6], “binds”. Moreover, the binding result in assay [7] is “binds”; in assay [8], “binds”; in assay [10] it was “no binding (tested: 1 µg/ml)”. For the same molecule, the Kd in the assay with human TIGIT was determined as 0.4 nM. Besides, the “fold higher affinity than antibody 313R19” value in [9] was around 5 fold.

The values above are taken from US20190077864A1 (ONCOMED PHARMACEUTICALS, published 2019).
